This passage reports binding result, Affinity increase and Kd results from patent US20240279318A1 (NANJING LEGEND BIOTECH, published 2024).

Substitutions are numbered along the chain they refer to.

The chains are these.
B1: AS170036 VL1VH1-VHG56N (scFv)
scFv: QSALTQPRSVSGSPGQSVTISCAGTSSDVGSENYVSWYQQHPGKAPKLMIYQVNKRASGVPDRFSGSKSGNTASLTISGLQAEDEADYYCASYRSSDHNIVFGGGTKLTVLGGGGSGGGGSGGGGSEVQLVESGGGLVQPGGSLRLSCAASGFTFSSYAMSWVRQAPGKGLEWVSTINSGTNSPYYADSVKGRFTISRDNSKNTLYLQMNSLRAEDTAVYYCAKNFFDGSWFLGPPAMDYWGQGTLVTVSSHHHHHH
B2: AS170036 VL1VH1-VHS57K (scFv)
scFv: B1 scFv with N182G, S183K
B3: AS170036 VL1VH1-VHG108A (scFv)
scFv: B1 scFv with N182G, G234A
B4: AS170036 VL1VH1-VHS57H (scFv)
scFv: B1 scFv with N182G, S183H
B5: AS170036 VL1VH1-VHG108S (scFv)
scFv: B1 scFv with N182G, G234S
B6: AS170036 VL1VH1-VHG56Y (scFv)
scFv: B1 scFv with N182Y
B7: AS170036 VL1VH1-VHG108D (scFv)
scFv: B1 scFv with N182G, G234D

One test deals with ATG9A peptide/HLA-A*02:01 complex (recombinant) (human). The experiment in a line: SPR.
As for B1, the binding result is on record as “no binding (tested: all below 3.5 RU)”.

For the molecule B2, the binding result is on record as “no binding (tested: all below 3.5 RU)”.

Regarding B3, the binding result is on record as “no binding (tested: all below 3.5 RU)”.

Consider B4, for which the binding result is on record as “no binding (tested: all below 3.5 RU)”.

On to B5, for which the binding result is given as “no binding (tested: all below 3.5 RU)”.

With B6, the binding result is “no binding (tested: all below 3.5 RU)”.

Regarding B7, the binding result was “no binding (tested: all below 3.5 RU)”.

A further test has as its target BRCA2 peptide/HLA-A*02:01 complex (recombinant) (human). As to the kind of experiment: SPR.
Consider B1, for which the binding result is recorded as “no binding (tested: all below 3.5 RU)”.

Turning to B2, the binding result is given as “no binding (tested: all below 3.5 RU)”.

B3: the binding result is reported as “no binding (tested: all below 3.5 RU)”.

With B4, the binding result was “no binding (tested: all below 3.5 RU)”.

Take B5: the binding result is “no binding (tested: all below 3.5 RU)”.

As to B6, the binding result was “no binding (tested: all below 3.5 RU)”.

Consider B7, for which the binding result was “no binding (tested: all below 3.5 RU)”.

The target in another test is CDC14A peptide/HLA-A*02:01 complex (recombinant) (human). The experiment in a line: SPR.
As to B1, the binding result is recorded as “no binding (tested: all below 3.5 RU)”.

As for B2, the binding result was “no binding (tested: all below 3.5 RU)”.

With B3, the binding result is recorded as “no binding (tested: all below 3.5 RU)”.

For the molecule B4, the binding result is on record as “no binding (tested: all below 3.5 RU)”.

As for B5, the binding result was “no binding (tested: all below 3.5 RU)”.

For the molecule B6, the binding result is reported as “no binding (tested: all below 3.5 RU)”.

Regarding B7, the binding result was “no binding (tested: all below 3.5 RU)”.

The target in a further test is NR2E1 peptide/HLA-A*02:01 complex (recombinant) (human). The experiment in a line: SPR.
As for B1, the binding result was “no binding (tested: all below 3.5 RU)”.

B2: the binding result is given as “no binding (tested: all below 3.5 RU)”.

Take B3: the binding result is reported as “no binding (tested: all below 3.5 RU)”.

In the case of B4, the binding result is “no binding (tested: all below 3.5 RU)”.

Consider B5, for which the binding result is reported as “no binding (tested: all below 3.5 RU)”.

Turning to B6, the binding result is listed as “no binding (tested: all below 3.5 RU)”.

Consider B7, for which the binding result is given as “no binding (tested: all below 3.5 RU)”.

For the next test, the target named is OR1I1 peptide/HLA-A*02:01 complex (recombinant) (human). As to the kind of experiment: SPR.
Take B1: the binding result was “no binding (tested: all below 3.5 RU)”.

B2: the binding result was “no binding (tested: all below 3.5 RU)”.

B3: the binding result is “no binding (tested: all below 3.5 RU)”.

As to B4, the binding result is given as “no binding (tested: all below 3.5 RU)”.

In the case of B5, the binding result is reported as “no binding (tested: all below 3.5 RU)”.

For B6, the binding result is given as “no binding (tested: all below 3.5 RU)”.

On to B7, for which the binding result is “no binding (tested: all below 3.5 RU)”.

Another test deals with OR51B6 peptide/HLA-A*02:01 complex (recombinant) (human). The experiment in a line: SPR.
As to B1, the binding result was “no binding (tested: all below 3.5 RU)”.

Take B2: the binding result was “no binding (tested: all below 3.5 RU)”.

For the molecule B4, the binding result is on record as “no binding (tested: all below 3.5 RU)”.

Take B5: the binding result is recorded as “no binding (tested: all below 3.5 RU)”.

For B6, the binding result is given as “no binding (tested: all below 3.5 RU)”.

The target of the next test is PTP4A1 peptide/HLA-A*02:01 complex (recombinant) (human). As to the kind of experiment: SPR.
Consider B1, for which the binding result is recorded as “no binding (tested: all below 3.5 RU)”.

Consider B2, for which the binding result is “no binding (tested: all below 3.5 RU)”.

Take B3: the binding result was “no binding (tested: all below 3.5 RU)”.

For the molecule B4, the binding result was “no binding (tested: all below 3.5 RU)”.

As for B5, the binding result was “no binding (tested: all below 3.5 RU)”.

Take B6: the binding result is recorded as “no binding (tested: all below 3.5 RU)”.

On to B7, for which the binding result is “no binding (tested: all below 3.5 RU)”.

Another test concerns the target RP1 peptide/HLA-A*02:01 complex (recombinant) (human, UniProt P16213 21-119 (Pongo pygmaeus entry)). The experiment in a line: SPR.
With B1, the binding result is “no binding (tested: all below 3.5 RU)”.

Consider B2, for which the binding result was “no binding (tested: all below 3.5 RU)”.

Take B3: the binding result is listed as “no binding (tested: all below 3.5 RU)”.

Consider B4, for which the binding result is “no binding (tested: all below 3.5 RU)”.

Regarding B5, the binding result is “no binding (tested: all below 3.5 RU)”.

For the molecule B6, the binding result was “no binding (tested: all below 3.5 RU)”.

On to B7, for which the binding result is recorded as “no binding (tested: all below 3.5 RU)”.

In the next test the target is RCL1 peptide/HLA-A*02:01 complex (recombinant) (human, UniProt P16213 21-119 (Pongo pygmaeus entry)). As to the kind of experiment: SPR.
B1: the binding result is reported as “no binding (tested: all below 3.5 RU)”.

As to B2, the binding result is “no binding (tested: all below 3.5 RU)”.

Turning to B3, the binding result is reported as “no binding (tested: all below 3.5 RU)”.

B4: the binding result is reported as “no binding (tested: all below 3.5 RU)”.

Take B5: the binding result is recorded as “no binding (tested: all below 3.5 RU)”.

Take B6: the binding result is given as “no binding (tested: all below 3.5 RU)”.

Regarding B7, the binding result is recorded as “no binding (tested: all below 3.5 RU)”.

The target of a further test is ZNF566 peptide/HLA-A*02:01 complex (recombinant) (human). As to the kind of experiment: SPR.
As to B1, the binding result is recorded as “no binding (tested: all below 3.5 RU)”.

In the case of B2, the binding result was “no binding (tested: all below 3.5 RU)”.

For B3, the binding result is on record as “no binding (tested: all below 3.5 RU)”.

Turning to B4, the binding result is “no binding (tested: all below 3.5 RU)”.

For the molecule B5, the binding result was “no binding (tested: all below 3.5 RU)”.

For B6, the binding result was “no binding (tested: all below 3.5 RU)”.

Regarding B7, the binding result is listed as “no binding (tested: all below 3.5 RU)”.

Another test addresses T1, AFP158/HLA-A*02:01 complex (human).
T1 construct: biotinylated on the BSP by BirA for ELISA and panning; also called biotinylated AFP158/HLA-A*02:01 complex; Bio-AFP158
The experiment in a line: SPR; vs AS170036 VL1VH1.
In the case of B1, the Affinity increase was over 2 fold.

B2 registered an Affinity increase of over 2 fold.

In turn, B3 yielded an Affinity increase of over 2 fold.

Consider B4, for which the Affinity increase is over 2 fold.

B5 registered an Affinity increase of over 2 fold.

Take B6: the Affinity increase is over 2 fold.

Turning to B7, the Affinity increase was over 2 fold.

For another test, the target named is T1, AFP158/HLA-A*02:01 complex. As to the kind of experiment: SPR; vs AS170036 VL1VH1. This is another data set of the same source.
Experimental: (§1) The experiment was carried out as follows. The crude scFv protein were captured onto the sensorchip. Different concentrations (320, 160, 40 nM) of AFP158/HLA-A*02:01 complex flowed over the sensorchip surface, and were allowed to bind the antibody fragment for 100 s followed by injection of the running buffer to allow dissociation of the complex. On-rate (kd) and off-rate (kd) were calculated based on association and dissociation curve, and were used to estimate the equilibrium dissociation constant (KD).
Consider B1, for which the Affinity increase was determined as 2.5 fold.

Molecule B2 displayed an Affinity increase of 4.4 fold.

In the case of B3, the Affinity increase was 5.5 fold.

B4 had an Affinity increase of 6.9 fold.

As for B5, the Affinity increase was determined as 2.8 fold.

Take B6: the Affinity increase is 6.6 fold.

For the molecule B7, the Affinity increase is 5.5 fold.

Another test concerns the target T1, AFP158/HLA-A*02:01 complex. The experiment in a line: SPR, crude scFv captured.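 Note: Peptide–MHC complex flowed at several concentrations over sensorchip-captured scFv, Kd derived from on- and off-rates obtained from the association and dissociation curves.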
Experimental: as §1
B1 registered a Kd of 92 nM.

The molecule B2 registered a Kd of 56 nM. This Kd lies about 1.6-fold lower than the previous one.

Molecule B3 displayed a Kd of 42 nM.

B4: the Kd amounted to 35 nM.

As to B5, binding was characterised by a dissociation constant (Kd) of 96 nM.

Molecule B6 came in with a Kd of 35 nM. Compared with the last molecule, the Kd is about 2.7-fold lower.

With B7, the Kd turned out to be 42 nM.
